EP4803151A2 (Lepu Biopharma Co., Ltd., dated 2026)

T1: human DLL3 endogenously expressed on SCLC tumor cell lines SHP77 and NCI-H82 (human, UniProt Q9NYJ7 27-618)
T1 construct: whole, on cells; also called human DLL3 expressed on tumor cells
T1 sequence (looked up): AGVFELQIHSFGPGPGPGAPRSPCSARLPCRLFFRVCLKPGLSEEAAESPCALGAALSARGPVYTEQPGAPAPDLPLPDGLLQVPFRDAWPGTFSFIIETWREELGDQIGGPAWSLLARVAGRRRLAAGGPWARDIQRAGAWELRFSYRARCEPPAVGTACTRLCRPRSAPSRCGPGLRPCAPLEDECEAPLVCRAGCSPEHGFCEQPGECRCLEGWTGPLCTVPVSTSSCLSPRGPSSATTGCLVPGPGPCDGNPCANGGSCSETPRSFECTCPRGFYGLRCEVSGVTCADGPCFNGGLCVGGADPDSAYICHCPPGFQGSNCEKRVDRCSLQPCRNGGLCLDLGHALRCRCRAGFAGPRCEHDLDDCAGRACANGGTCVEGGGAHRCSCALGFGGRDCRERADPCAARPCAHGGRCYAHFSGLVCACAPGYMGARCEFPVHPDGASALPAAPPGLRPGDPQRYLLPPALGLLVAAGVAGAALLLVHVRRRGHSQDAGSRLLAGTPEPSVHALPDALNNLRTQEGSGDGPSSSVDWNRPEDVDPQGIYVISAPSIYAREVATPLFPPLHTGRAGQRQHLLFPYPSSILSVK

T2: ECD of human DLL3 over-expressed on HEK293 cells (human, UniProt Q9NYJ7 27-492)
T2 construct: extracellular domain; also called HEK293-hDLL3; human DLL3 expressed on HEK293 cells
T2 sequence (looked up): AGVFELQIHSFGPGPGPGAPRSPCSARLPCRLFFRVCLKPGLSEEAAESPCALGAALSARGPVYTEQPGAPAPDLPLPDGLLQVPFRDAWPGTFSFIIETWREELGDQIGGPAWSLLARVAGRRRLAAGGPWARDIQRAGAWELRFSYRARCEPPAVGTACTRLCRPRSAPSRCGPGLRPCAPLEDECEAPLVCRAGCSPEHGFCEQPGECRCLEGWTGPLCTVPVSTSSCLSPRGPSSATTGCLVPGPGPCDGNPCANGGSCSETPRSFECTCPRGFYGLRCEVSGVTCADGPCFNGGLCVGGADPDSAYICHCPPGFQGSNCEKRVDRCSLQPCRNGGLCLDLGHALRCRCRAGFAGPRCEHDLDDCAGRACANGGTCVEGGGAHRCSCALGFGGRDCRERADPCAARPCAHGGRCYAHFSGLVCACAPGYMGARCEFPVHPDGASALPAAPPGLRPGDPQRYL

T3: ECD of human DLL3 protein fused with his tag (Acro Bio, Cat. No. DL3-H52H4) (human, UniProt Q9NYJ7 27-492)
T3 construct: range 27-492; Bought protein; also called hDLL3-his; human DLL3-his protein; not shown: his tag
T3 sequence (looked up): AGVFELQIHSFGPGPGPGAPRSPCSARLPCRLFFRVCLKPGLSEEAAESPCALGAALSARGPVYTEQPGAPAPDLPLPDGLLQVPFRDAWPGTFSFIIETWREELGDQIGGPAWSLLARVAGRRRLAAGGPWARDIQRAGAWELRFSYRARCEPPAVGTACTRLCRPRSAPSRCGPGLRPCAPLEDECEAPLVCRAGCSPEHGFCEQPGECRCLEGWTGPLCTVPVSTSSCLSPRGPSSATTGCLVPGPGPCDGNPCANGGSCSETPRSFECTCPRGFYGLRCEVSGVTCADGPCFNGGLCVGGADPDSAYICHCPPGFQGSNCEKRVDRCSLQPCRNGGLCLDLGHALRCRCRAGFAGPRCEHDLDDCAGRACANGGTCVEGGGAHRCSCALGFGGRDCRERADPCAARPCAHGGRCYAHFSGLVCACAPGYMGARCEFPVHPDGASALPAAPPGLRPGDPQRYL


Experiments:
[1] = target: T1, human DLL3 endogenously expressed on …; assay: flow cytometry on SHP77 cells
[2] = target: T2, ECD of human DLL3 over-expressed on …; assay: flow cytometry on HEK293-hDLL3 cells
[3] = target: T3, ECD of human DLL3 protein fused with …; assay: ELISA, hDLL3-his coated

Binder	binding result [1]	binding result [2]	binding result [3]
310P3C5-z15p10 PTM removed humanized antibody (antibody, V domains shown, variable regions fused to the constant region of human IgG1) VH: QVQLVQSGAEVKKPGASVKVSCKASGYTFTDFYMNWVKQAPGQGLEWIGDANPNAGGTTHNPRFKGRATLTVDKSASTAYMELRSLRSEDTAVYYCARGGLPGDFDYWGQGTTVTVSS VL: DIQMTQSPSSLSASVGDRVTITCKASEDIYNRLAWYQQKPGKAPKLLISGVTSLETGVPSRFSGSGSGTDFTFTISSLQPEDIATYYCQQYWSFPWTFGGGTKVEIK	binds	binds	
310P3C5-z7 humanized antibody (antibody, human IgG1, kappa, V domains shown, HU-VH1-3 with HU-VL1-2; human IgG1) VH: QVQLVQSGAEVKKPGASVKVSCKASGYTFTDFYMNWVRQAPGQGLEWIGDANPNNGGTTHNPRFKGRATLTVDTSTSTAYMELRSLRSDDTAVYYCARGGLPGDFDYWGQGTTVTVSS VL: DIQMTQSPSSVSASVGDRVTITCKASEDIYNRLAWYQQKPGKAPKLLISGVTSLETGVPSRFSGSGSGTDFTLTISSLQPEDFATYYCQQYWSFPWTFGGGTKVEIKR			binds
310P3C5-z13 humanized antibody (antibody, human IgG1, kappa, V domains shown, HU-VH1-1 with HU-VL2; human IgG1) VH: QVQLVQSGAEVKKPGASVKVSCKASGYTFTDFYMNWVRQAPGQGLEWMGDANPNNGGTTHNPRFKGRVTMTTDTSTSTAYMELRSLRSDDTAVYYCARGGLPGDFDYWGQGTTVTVSS VL: DIQMTQSPSSLSASVGDRVTITCKASEDIYNRLAWYQQKPGKAPKLLISGVTSLETGVPSRFSGSGSGTDFTFTISSLQPEDIATYYCQQYWSFPWTFGGGTKVEIKR			binds
310P3C5-z15p12 PTM removed humanized antibody (antibody, V domains shown, variable regions fused to the constant region of human IgG1) VH: QVQLVQSGAEVKKPGASVKVSCKASGYTFTDFYMNWVKQAPGQGLEWIGDANPNFGGTTHNPRFKGRATLTVDKSASTAYMELRSLRSEDTAVYYCARGGLPGDFDYWGQGTTVTVSS VL: DIQMTQSPSSLSASVGDRVTITCKASEDIYNRLAWYQQKPGKAPKLLISGVTSLETGVPSRFSGSGSGTDFTFTISSLQPEDIATYYCQQYWSFPWTFGGGTKVEIK	binds	binds	
310P3C5-z15p21 PTM removed humanized antibody (antibody, V domains shown, variable regions fused to the constant region of human IgG1) VH: QVQLVQSGAEVKKPGASVKVSCKASGYTFTDFYMNWVKQAPGQGLEWIGDANPNYGGTTHNPRFKGRATLTVDKSASTAYMELRSLRSEDTAVYYCARGGLPGDFDYWGQGTTVTVSS VL: DIQMTQSPSSLSASVGDRVTITCKASEDIYNRLAWYQQKPGKAPKLLISGVTSLETGVPSRFSGSGSGTDFTFTISSLQPEDIATYYCQQYWSFPWTFGGGTKVEIK	binds	binds	
310P3C5-z3 humanized antibody (antibody, human IgG1, kappa, V domains shown, HU-VH1-3 with HU-VL1-1; human IgG1) VH: QVQLVQSGAEVKKPGASVKVSCKASGYTFTDFYMNWVRQAPGQGLEWIGDANPNNGGTTHNPRFKGRATLTVDTSTSTAYMELRSLRSDDTAVYYCARGGLPGDFDYWGQGTTVTVSS VL: DIQMTQSPSSVSASVGDRVTITCKASEDIYNRLAWYQQKPGKAPKLLIYGVTSLETGVPSRFSGSGSGTDFTLTISSLQPEDFATYYCQQYWSFPWTFGGGTKVEIKR			binds
310P3C5-z10 humanized antibody (antibody, human IgG1, kappa, V domains shown, HU-VH1-2 with HU-VL1-3; human IgG1) VH: QVQLVQSGAEVKKPGASVKVSCKASGYTFTDFYMNWVRQAPGQGLEWIGDANPNNGGTTHNPRFKGRATMTTDTSTSTAYMELRSLRSDDTAVYYCARGGLPGDFDYWGQGTTVTVSS VL: DIQMTQSPSSVSASVGDRVTITCKASEDIYNRLAWYQQKPGKAPKLLISGVTSLETGVPSRFSGSGSGKDFTLTISSLQPEDFATYYCQQYWSFPWTFGGGTKVEIKR			binds
310P3C5-z2 humanized antibody (antibody, human IgG1, kappa, V domains shown, HU-VH1-2 with HU-VL1-1; human IgG1) VH: QVQLVQSGAEVKKPGASVKVSCKASGYTFTDFYMNWVRQAPGQGLEWIGDANPNNGGTTHNPRFKGRATMTTDTSTSTAYMELRSLRSDDTAVYYCARGGLPGDFDYWGQGTTVTVSS VL: DIQMTQSPSSVSASVGDRVTITCKASEDIYNRLAWYQQKPGKAPKLLIYGVTSLETGVPSRFSGSGSGTDFTLTISSLQPEDFATYYCQQYWSFPWTFGGGTKVEIKR			binds
310P3C5-z15p13 PTM removed humanized antibody (antibody, V domains shown, variable regions fused to the constant region of human IgG1) VH: QVQLVQSGAEVKKPGASVKVSCKASGYTFTDFYMNWVKQAPGQGLEWIGDANPNHGGTTHNPRFKGRATLTVDKSASTAYMELRSLRSEDTAVYYCARGGLPGDFDYWGQGTTVTVSS VL: DIQMTQSPSSLSASVGDRVTITCKASEDIYNRLAWYQQKPGKAPKLLISGVTSLETGVPSRFSGSGSGTDFTFTISSLQPEDIATYYCQQYWSFPWTFGGGTKVEIK	binds	binds	
310P3C5-z15p19 PTM removed humanized antibody (antibody, V domains shown, variable regions fused to the constant region of human IgG1) VH: QVQLVQSGAEVKKPGASVKVSCKASGYTFTDFYMNWVKQAPGQGLEWIGDANPNVGGTTHNPRFKGRATLTVDKSASTAYMELRSLRSEDTAVYYCARGGLPGDFDYWGQGTTVTVSS VL: DIQMTQSPSSLSASVGDRVTITCKASEDIYNRLAWYQQKPGKAPKLLISGVTSLETGVPSRFSGSGSGTDFTFTISSLQPEDIATYYCQQYWSFPWTFGGGTKVEIK	binds	binds	
310P3C5-z5 humanized antibody (antibody, human IgG1, kappa, V domains shown, HU-VH1-1 with HU-VL1-2; human IgG1) VH: QVQLVQSGAEVKKPGASVKVSCKASGYTFTDFYMNWVRQAPGQGLEWMGDANPNNGGTTHNPRFKGRVTMTTDTSTSTAYMELRSLRSDDTAVYYCARGGLPGDFDYWGQGTTVTVSS VL: DIQMTQSPSSVSASVGDRVTITCKASEDIYNRLAWYQQKPGKAPKLLISGVTSLETGVPSRFSGSGSGTDFTLTISSLQPEDFATYYCQQYWSFPWTFGGGTKVEIKR			binds
310P3C5-z1 humanized antibody (antibody, human IgG1, kappa, V domains shown, HU-VH1-1 with HU-VL1-1; human IgG1) VH: QVQLVQSGAEVKKPGASVKVSCKASGYTFTDFYMNWVRQAPGQGLEWMGDANPNNGGTTHNPRFKGRVTMTTDTSTSTAYMELRSLRSDDTAVYYCARGGLPGDFDYWGQGTTVTVSS VL: DIQMTQSPSSVSASVGDRVTITCKASEDIYNRLAWYQQKPGKAPKLLIYGVTSLETGVPSRFSGSGSGTDFTLTISSLQPEDFATYYCQQYWSFPWTFGGGTKVEIKR			binds
310P3C5-z9 humanized antibody (antibody, human IgG1, kappa, V domains shown, HU-VH1-1 with HU-VL1-3; human IgG1) VH: QVQLVQSGAEVKKPGASVKVSCKASGYTFTDFYMNWVRQAPGQGLEWMGDANPNNGGTTHNPRFKGRVTMTTDTSTSTAYMELRSLRSDDTAVYYCARGGLPGDFDYWGQGTTVTVSS VL: DIQMTQSPSSVSASVGDRVTITCKASEDIYNRLAWYQQKPGKAPKLLISGVTSLETGVPSRFSGSGSGKDFTLTISSLQPEDFATYYCQQYWSFPWTFGGGTKVEIKR			binds
310P3C5-z11 humanized antibody (antibody, human IgG1, kappa, V domains shown, HU-VH1-3 with HU-VL1-3; human IgG1) VH: QVQLVQSGAEVKKPGASVKVSCKASGYTFTDFYMNWVRQAPGQGLEWIGDANPNNGGTTHNPRFKGRATLTVDTSTSTAYMELRSLRSDDTAVYYCARGGLPGDFDYWGQGTTVTVSS VL: DIQMTQSPSSVSASVGDRVTITCKASEDIYNRLAWYQQKPGKAPKLLISGVTSLETGVPSRFSGSGSGKDFTLTISSLQPEDFATYYCQQYWSFPWTFGGGTKVEIKR			binds
310P3C5-z6 humanized antibody (antibody, human IgG1, kappa, V domains shown, HU-VH1-2 with HU-VL1-2; human IgG1) VH: QVQLVQSGAEVKKPGASVKVSCKASGYTFTDFYMNWVRQAPGQGLEWIGDANPNNGGTTHNPRFKGRATMTTDTSTSTAYMELRSLRSDDTAVYYCARGGLPGDFDYWGQGTTVTVSS VL: DIQMTQSPSSVSASVGDRVTITCKASEDIYNRLAWYQQKPGKAPKLLISGVTSLETGVPSRFSGSGSGTDFTLTISSLQPEDFATYYCQQYWSFPWTFGGGTKVEIKR			binds
310P3C5-z15p18 PTM removed humanized antibody (antibody, V domains shown, variable regions fused to the constant region of human IgG1) VH: QVQLVQSGAEVKKPGASVKVSCKASGYTFTDFYMNWVKQAPGQGLEWIGDANPNRGGTTHNPRFKGRATLTVDKSASTAYMELRSLRSEDTAVYYCARGGLPGDFDYWGQGTTVTVSS VL: DIQMTQSPSSLSASVGDRVTITCKASEDIYNRLAWYQQKPGKAPKLLISGVTSLETGVPSRFSGSGSGTDFTFTISSLQPEDIATYYCQQYWSFPWTFGGGTKVEIK	binds	binds	
310P3C5-z15p20 PTM removed humanized antibody (antibody, V domains shown, variable regions fused to the constant region of human IgG1) VH: QVQLVQSGAEVKKPGASVKVSCKASGYTFTDFYMNWVKQAPGQGLEWIGDANPNWGGTTHNPRFKGRATLTVDKSASTAYMELRSLRSEDTAVYYCARGGLPGDFDYWGQGTTVTVSS VL: DIQMTQSPSSLSASVGDRVTITCKASEDIYNRLAWYQQKPGKAPKLLISGVTSLETGVPSRFSGSGSGTDFTFTISSLQPEDIATYYCQQYWSFPWTFGGGTKVEIK	binds	binds	
